Experimental data taken from patent US20220177594A1.

Assays:
[1] = target: Feline_OSMR_hlgG1_Fc (feline); experiment: SPR Biacore, OSMR on chip
[2] = target: Canine_OSMR_hlgG1_Fc (canine); experiment: SPR Biacore
[3] = target: Feline_OSMR_hlgG1_Fc (feline); experiment: SPR Biacore
[4] = target: Feline_OSMR_hlgG1_Fc (feline); experiment: indirect ELISA, fOSMR coated; OD ratio to antibody expression control
[5] = target: Canine_OSMR_hlgG1_Fc (canine); experiment: SPR Biacore, OSMR on chip

Sequence of Feline_OSMR_hlgG1_Fc (feline) (chain, as listed by the source limits assumed, form in doubt): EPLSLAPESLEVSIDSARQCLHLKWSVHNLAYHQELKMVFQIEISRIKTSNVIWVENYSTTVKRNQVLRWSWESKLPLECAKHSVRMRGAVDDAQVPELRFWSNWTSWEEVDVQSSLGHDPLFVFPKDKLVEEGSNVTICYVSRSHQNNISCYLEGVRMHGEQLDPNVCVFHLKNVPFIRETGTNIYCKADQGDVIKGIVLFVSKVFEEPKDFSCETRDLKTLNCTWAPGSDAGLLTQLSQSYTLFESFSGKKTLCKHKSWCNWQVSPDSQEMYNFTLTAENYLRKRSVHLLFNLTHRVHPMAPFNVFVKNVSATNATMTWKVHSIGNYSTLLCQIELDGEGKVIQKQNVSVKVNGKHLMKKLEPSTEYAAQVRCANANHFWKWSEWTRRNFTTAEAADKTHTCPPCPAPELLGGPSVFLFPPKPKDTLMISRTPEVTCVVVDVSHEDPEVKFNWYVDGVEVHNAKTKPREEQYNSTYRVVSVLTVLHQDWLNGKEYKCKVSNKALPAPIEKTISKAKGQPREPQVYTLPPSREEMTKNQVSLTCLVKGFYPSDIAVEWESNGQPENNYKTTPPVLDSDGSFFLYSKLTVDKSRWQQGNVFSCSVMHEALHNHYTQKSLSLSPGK
Sequence of Canine_OSMR_hlgG1_Fc (canine) (chain, as listed by the source limits assumed, form in doubt): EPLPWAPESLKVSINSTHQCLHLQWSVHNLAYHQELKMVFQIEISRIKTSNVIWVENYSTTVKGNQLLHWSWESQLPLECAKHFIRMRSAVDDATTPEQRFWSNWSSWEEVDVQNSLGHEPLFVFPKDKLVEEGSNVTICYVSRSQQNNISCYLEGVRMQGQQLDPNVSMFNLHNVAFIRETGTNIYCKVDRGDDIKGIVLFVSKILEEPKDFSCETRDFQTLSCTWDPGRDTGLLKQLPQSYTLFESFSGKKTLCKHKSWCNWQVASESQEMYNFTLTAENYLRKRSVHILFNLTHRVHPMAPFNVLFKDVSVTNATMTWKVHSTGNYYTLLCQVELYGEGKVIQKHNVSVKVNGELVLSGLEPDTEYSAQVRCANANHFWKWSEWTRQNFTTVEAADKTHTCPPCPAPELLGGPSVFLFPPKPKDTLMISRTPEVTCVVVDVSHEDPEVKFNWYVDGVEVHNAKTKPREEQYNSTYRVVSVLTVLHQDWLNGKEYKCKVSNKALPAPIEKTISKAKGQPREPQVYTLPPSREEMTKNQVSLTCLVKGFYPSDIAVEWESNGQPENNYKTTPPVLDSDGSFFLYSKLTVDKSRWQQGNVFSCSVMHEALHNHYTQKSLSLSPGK

Row | Binder | Kd [1] [nM] | Kd [2] [nM] | koff [2] [s⁻¹] | kon [2] [M⁻¹ s⁻¹] | Kd [3] [nM] | koff [3] [s⁻¹] | kon [3] [M⁻¹ s⁻¹] | ELISA ratio [4] [OD ratio] | Kd [5] [nM]
1 | Mu_02D09 (antibody, V domains shown) VH: EVQLVESGGGLVKPGGSLTLSCAASGFTFSDYGMHWLRQAPEKGLEWVAYISSGSRAVFFADTVKGRFTISRDNAKNTLFLQMTSLRSDDTAMYYCARDRYDGRGFAYWGQGTLVTVSA VL: DIVLTQSPATLSVTPGDSVSLSCRASQSISNNLHWYQQTSHESPRLLITYASQSISGIPSRFSGSGSGTDFTLSINSVETEDFGMYFCQQSNSWPLTFGAGTKLELK | 8.96 |  |  |  |  |  |  |  | 
2 | Mu_02D09_VL (SEQ ID NO: 33)_Q27A (antibody, V domains shown) VH: EVQLVESGGGLVKPGGSLTLSCAASGFTFSDYGMHWLRQAPEKGLEWVAYISSGSRAVFFADTVKGRFTISRDNAKNTLFLQMTSLRSDDTAMYYCARDRYDGRGFAYWGQGTLVTVSA VL: DIVLTQSPATLSVTPGDSVSLSCRASASISNNLHWYQQTSHESPRLLITYASQSISGIPSRFSGSGSGTDFTLSINSVETEDFGMYFCQQSNSWPLTFGAGTKLELKR |  | 35 | 0.00441 | 126000 | 7.57 | 0.00109 | 144000 | 0.025 | 
3 | Mu_02D09_VL (SEQ ID NO: 33)_S56A (antibody, V domains shown) VH: EVQLVESGGGLVKPGGSLTLSCAASGFTFSDYGMHWLRQAPEKGLEWVAYISSGSRAVFFADTVKGRFTISRDNAKNTLFLQMTSLRSDDTAMYYCARDRYDGRGFAYWGQGTLVTVSA VL: DIVLTQSPATLSVTPGDSVSLSCRASQSISNNLHWYQQTSHESPRLLITYASQSIAGIPSRFSGSGSGTDFTLSINSVETEDFGMYFCQQSNSWPLTFGAGTKLELKR |  | 159 | 0.00653 | 41200 | 9.3 | 0.00107 | 116000 | 0 | 
4 | Mu_09E09 (antibody, V domains shown) VH: DVKLVESGEGLVKPGGSLKLSCAASGFTFSSYAMSWVRQTPEKRLEWVAYISSGGDYIYYADTVKGRFTISRDNARNTLYLQMSSLKSEDTAMYYCTRDPITGTFAYWGQGTLVTVSA VL: DLQMTQTTSSLSASLGDRVTISCRASQDINNYLNWYQQKPDGTVKLLIYYTSTLHSGVPSRFSGSGSGTDYSLTISNLEQEDIATYFCQQGNTLPWTFGGGTKLEIK | 3.75 |  |  |  |  |  |  |  | 7.87
5 | Mu_10F07_VL (SEQ ID NO: 41)_W96A (antibody, V domains shown) VH: DVKLVESGEGLVKPGGSLKLSCAASGFTFSSYAMSWVRQTPEKRLEWVTYISSGGDYFYYADTVKGRFTISRDNARNTLYLQMSSLKSEDTAMYYCTRDPITGTFAYWGQGTLVTVSA VL: DIQMTQTTSSLSASLGDRVTISCRASQDITNYLNWYQQKPDGTVKLLIYYTSTLHSGVPSRFSGSGSGTDFSLTISNLEQEDIATYFCQQGHMLPATFGGGTKLEIKR |  | 40 | 8.63 | 2.16e+08 | 7.03 | 0.00158 | 225000 | 0.134 | 
6 | Mu_10F07 (antibody, V domains shown) VH: DVKLVESGEGLVKPGGSLKLSCAASGFTFSSYAMSWVRQTPEKRLEWVTYISSGGDYFYYADTVKGRFTISRDNARNTLYLQMSSLKSEDTAMYYCTRDPITGTFAYWGQGTLVTVSA VL: DIQMTQTTSSLSASLGDRVTISCRASQDITNYLNWYQQKPDGTVKLLIYYTSTLHSGVPSRFSGSGSGTDFSLTISNLEQEDIATYFCQQGHMLPWTFGGGTKLEIK | 1.59 |  |  |  |  |  |  |  | 2.03
7 | Mu_14C04 (antibody, V domains shown) VH: EVQLQESGAELVKPGASVKISCKASGYAFSNYWMNWMKQRPGKGLEWIGQIYPGHVNTNYNGNFKDKATLTADKSSSTAYMQLSSLTSEDSAVYFCARSADNSGFVLFAYWGQGTLVTVS VL: DIVLTQSPASLAVSLGQRATISCRASKSVSTSGYSYLHWYQQKPGQPPKLLIFLASNLESGVPARFSGSGSGTDFTLNIHPVEEEDAATYYCQHSRELPLTFGAGTKLELK |  |  |  |  |  |  |  |  | 14.2
8 | Mu_19F07 (antibody, V domains shown) VH: EVKLVESEGGLVQPGSSMKLSCTASGFTFSDYYMAWVRQVPEKGLEWVANINYDGSSTYYLDSLKSRFIISRDNAKNILYLQMSSLKSEDTATYYCARGLTWDFDVWGTGTTVTVSS VL: DIVMTQSHKFMSPSVGDRVSITCKASQDVDTAVAWYQQKPGQSPKLLIYLASTRHTGVPDRFTGSGSGTDFTLTISNVQSEDLADYFCQQYSRFPLTFGAGTKLELK | 0.0207 |  |  |  |  |  |  |  | 0.951

The remaining binders from weak to strong by Kd [3], led by results:

Row | Kd [1] [nM] | Kd [2] [nM] | koff [2] [s⁻¹] | kon [2] [M⁻¹ s⁻¹] | Kd [3] [nM] | koff [3] [s⁻¹] | kon [3] [M⁻¹ s⁻¹] | ELISA ratio [4] [OD ratio] | Kd [5] [nM] | Binder
9 |  | 34.8 | 0.0246 | 707000 | 6.39 | 0.000765 | 120000 | 0.991 |  | Mu_02D09_VH (SEQ ID NO: 31)_Y32A (antibody, V domains shown) VH: EVQLVESGGGLVKPGGSLTLSCAASGFTFSDAGMHWLRQAPEKGLEWVAYISSGSRAVFFADTVKGRFTISRDNAKNTLFLQMTSLRSDDTAMYYCARDRYDGRGFAYWGQGTLVTVSA VL: DIVLTQSPATLSVTPGDSVSLSCRASQSISNNLHWYQQTSHESPRLLITYASQSISGIPSRFSGSGSGTDFTLSINSVETEDFGMYFCQQSNSWPLTFGAGTKLELKR
10 |  | 11.2 | 0.000576 | 51600 | 3.18 | 0.000704 | 221000 | 0.545 |  | Mu_10F07_VH (SEQ ID NO: 39)_D99A (antibody, V domains shown) VH: DVKLVESGEGLVKPGGSLKLSCAASGFTFSSYAMSWVRQTPEKRLEWVTYISSGGDYFYYADTVKGRFTISRDNARNTLYLQMSSLKSEDTAMYYCTRAPITGTFAYWGQGTLVTVSA VL: DIQMTQTTSSLSASLGDRVTISCRASQDITNYLNWYQQKPDGTVKLLIYYTSTLHSGVPSRFSGSGSGTDFSLTISNLEQEDIATYFCQQGHMLPWTFGGGTKLEIKR
11 |  | 3.94 | 0.000256 | 65000 | 1.83 | 0.000468 | 255000 | 0.217 |  | Mu_10F07_VL (SEQ ID NO: 41)_T53A (antibody, V domains shown) VH: DVKLVESGEGLVKPGGSLKLSCAASGFTFSSYAMSWVRQTPEKRLEWVTYISSGGDYFYYADTVKGRFTISRDNARNTLYLQMSSLKSEDTAMYYCTRDPITGTFAYWGQGTLVTVSA VL: DIQMTQTTSSLSASLGDRVTISCRASQDITNYLNWYQQKPDGTVKLLIYYTSALHSGVPSRFSGSGSGTDFSLTISNLEQEDIATYFCQQGHMLPWTFGGGTKLEIKR
12 |  | 5.32 | 0.000219 | 41200 | 1.63 | 0.000282 | 172000 | 0.298 |  | Mu_10F07_VL (SEQ ID NO: 41)_T97A (antibody, V domains shown) VH: DVKLVESGEGLVKPGGSLKLSCAASGFTFSSYAMSWVRQTPEKRLEWVTYISSGGDYFYYADTVKGRFTISRDNARNTLYLQMSSLKSEDTAMYYCTRDPITGTFAYWGQGTLVTVSA VL: DIQMTQTTSSLSASLGDRVTISCRASQDITNYLNWYQQKPDGTVKLLIYYTSTLHSGVPSRFSGSGSGTDFSLTISNLEQEDIATYFCQQGHMLPWAFGGGTKLEIKR
13 |  | 5.48 | 0.000222 | 40500 | 1.53 | 0.000274 | 179000 | 0.15 |  | Mu_10F07_VL (SEQ ID NO: 41)_L33A (antibody, V domains shown) VH: DVKLVESGEGLVKPGGSLKLSCAASGFTFSSYAMSWVRQTPEKRLEWVTYISSGGDYFYYADTVKGRFTISRDNARNTLYLQMSSLKSEDTAMYYCTRDPITGTFAYWGQGTLVTVSA VL: DIQMTQTTSSLSASLGDRVTISCRASQDITNYANWYQQKPDGTVKLLIYYTSTLHSGVPSRFSGSGSGTDFSLTISNLEQEDIATYFCQQGHMLPWTFGGGTKLEIKR
14 |  | 1.69 | 6.76e-05 | 40100 | 1.43 | 0.000247 | 173000 | 0.375 |  | Mu_10F07_VH (SEQ ID NO: 39)_Y107A (antibody, V domains shown) VH: DVKLVESGEGLVKPGGSLKLSCAASGFTFSSYAMSWVRQTPEKRLEWVTYISSGGDYFYYADTVKGRFTISRDNARNTLYLQMSSLKSEDTAMYYCTRDPITGTFAAWGQGTLVTVSA VL: DIQMTQTTSSLSASLGDRVTISCRASQDITNYLNWYQQKPDGTVKLLIYYTSTLHSGVPSRFSGSGSGTDFSLTISNLEQEDIATYFCQQGHMLPWTFGGGTKLEIKR
15 |  | 3.92 | 0.00356 | 908000 | 0.767 | 0.000872 | 1.14e+06 | 0.159 |  | Mu_02D09_VH (SEQ ID NO: 31)_D31A (antibody, V domains shown) VH: EVQLVESGGGLVKPGGSLTLSCAASGFTFSAYGMHWLRQAPEKGLEWVAYISSGSRAVFFADTVKGRFTISRDNAKNTLFLQMTSLRSDDTAMYYCARDRYDGRGFAYWGQGTLVTVSA VL: DIVLTQSPATLSVTPGDSVSLSCRASQSISNNLHWYQQTSHESPRLLITYASQSISGIPSRFSGSGSGTDFTLSINSVETEDFGMYFCQQSNSWPLTFGAGTKLELKR
16 |  |  |  |  | 0.0511 | 2.38e-06 | 46500 | 0.985 |  | Mu_19F07_VL (SEQ ID NO: 49)_Q89A (antibody, V domains shown) VH: EVKLVESEGGLVQPGSSMKLSCTASGFTFSDYYMAWVRQVPEKGLEWVANINYDGSSTYYLDSLKSRFIISRDNAKNILYLQMSSLKSEDTATYYCARGLTWDFDVWGTGTTVTVSS VL: DIVMTQSHKFMSPSVGDRVSITCKASQDVDTAVAWYQQKPGQSPKLLIYLASTRHTGVPDRFTGSGSGTDFTLTISNVQSEDLADYFCAQYSRFPLTFGAGTKLELKR
17 |  |  |  |  | 0.0052 | 4.7e-07 | 90400 | 1.09 |  | Mu_19F07_VL (SEQ ID NO: 49)_F94A (antibody, V domains shown) VH: EVKLVESEGGLVQPGSSMKLSCTASGFTFSDYYMAWVRQVPEKGLEWVANINYDGSSTYYLDSLKSRFIISRDNAKNILYLQMSSLKSEDTATYYCARGLTWDFDVWGTGTTVTVSS VL: DIVMTQSHKFMSPSVGDRVSITCKASQDVDTAVAWYQQKPGQSPKLLIYLASTRHTGVPDRFTGSGSGTDFTLTISNVQSEDLADYFCQQYSRAPLTFGAGTKLELKR
18 |  |  |  |  | 0.00048 | 1.31e-07 | 273000 | 1.08 |  | Mu_19F07_VL (SEQ ID NO: 49)_Q90A (antibody, V domains shown) VH: EVKLVESEGGLVQPGSSMKLSCTASGFTFSDYYMAWVRQVPEKGLEWVANINYDGSSTYYLDSLKSRFIISRDNAKNILYLQMSSLKSEDTATYYCARGLTWDFDVWGTGTTVTVSS VL: DIVMTQSHKFMSPSVGDRVSITCKASQDVDTAVAWYQQKPGQSPKLLIYLASTRHTGVPDRFTGSGSGTDFTLTISNVQSEDLADYFCQAYSRFPLTFGAGTKLELKR
